Reference: PMC9969416 (Endocrinology, 2023)

Target: the molecule itself
Experiment: crystal structure

B1: ligand-binding domain (LBD) of human RXRα (residues 223-462) (domain or fragment)
chain: TSSANEDMPVERILEAELAVEPKTETYVEANMGLNPSSPNDPVTNICQAADKQLFTLVEWAKRIPHFSELPLDDQVILLRAGWNELLIASFSHRSIAVKDGILLATGLHVHRNSAHSAGVGAIFDRVLTELVSKMRDMQMDKTELGCLRAIVLFNPDSKGLSNPAEVEALREKVYASLEAYCKHKYPEQPGRFAKLLLRLPALRSIGLKCLEHLFFFKLIGDTPIDTFLMEMLEAPHQMT
B1: binds.
